The target of the assay is HIV-1 gp41 (Env of HIV-1 BaL) (HIV-1 BaL). Kind of assay: cell-based or functional assay.

B1: RC-101 (single lysine congener of retrocyclin) (peptide)
peptide: cyclo(RCICGRGICRCICGKGIC)
modifications: disulfide (positions not given here); also: three disulfide bridges, pairing not given here
Regarding B1, the “IC50 of inhibition of HIV-1 BaL entry in TZM-bl cells (luciferase)” value is 2 µg/mL.

Values taken from patent publication US20110190385A1 (UNIVERSITY OF CENTRAL FLORIDA RESEARCH FOUNDATION, published 2011).
